In patent WO2008112290A2 (dated 2008):

Molecular target: T1, Human EphB4 (Genbank ID No. NP_004435) (human, UniProt P54760 16-987, limits assumed)
T1 construct: Detected as denatured protein on Western blot (MAb265), on tissue sections (MAb131) and by immunoprecipitation (MAb47); also called EphB4 receptor
T1 sequence: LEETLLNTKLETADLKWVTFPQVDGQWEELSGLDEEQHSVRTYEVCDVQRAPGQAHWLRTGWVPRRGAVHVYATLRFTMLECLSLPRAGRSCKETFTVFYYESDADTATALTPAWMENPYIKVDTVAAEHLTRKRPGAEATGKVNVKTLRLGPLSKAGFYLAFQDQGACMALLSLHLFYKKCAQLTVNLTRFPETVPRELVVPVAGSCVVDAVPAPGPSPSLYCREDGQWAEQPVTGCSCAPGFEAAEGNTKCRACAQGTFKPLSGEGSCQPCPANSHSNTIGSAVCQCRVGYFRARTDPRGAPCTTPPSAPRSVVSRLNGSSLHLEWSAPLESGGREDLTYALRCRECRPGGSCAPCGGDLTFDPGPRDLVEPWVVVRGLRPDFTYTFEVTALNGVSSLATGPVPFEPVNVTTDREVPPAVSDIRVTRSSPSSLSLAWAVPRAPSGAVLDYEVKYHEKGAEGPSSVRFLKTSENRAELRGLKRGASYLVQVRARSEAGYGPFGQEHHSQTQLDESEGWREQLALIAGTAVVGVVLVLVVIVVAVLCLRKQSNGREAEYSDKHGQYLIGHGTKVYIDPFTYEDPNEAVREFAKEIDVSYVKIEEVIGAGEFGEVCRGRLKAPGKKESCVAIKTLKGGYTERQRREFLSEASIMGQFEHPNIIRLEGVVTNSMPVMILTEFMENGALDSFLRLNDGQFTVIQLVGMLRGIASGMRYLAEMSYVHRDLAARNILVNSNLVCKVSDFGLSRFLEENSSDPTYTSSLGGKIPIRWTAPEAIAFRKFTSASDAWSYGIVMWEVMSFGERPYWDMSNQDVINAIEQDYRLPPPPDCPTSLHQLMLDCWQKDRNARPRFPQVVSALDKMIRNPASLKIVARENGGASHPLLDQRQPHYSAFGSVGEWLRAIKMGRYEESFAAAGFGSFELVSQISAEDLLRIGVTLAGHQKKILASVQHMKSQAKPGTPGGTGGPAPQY
Assay: Western blot

B1: mouse monoclonal antibody 265 (antibody, V domains shown)
VH: QQSGAELARPGASVKLSCKASGYTFTSYWMQWVKQRPGQGLEWIGAIYPGDGDTRYTQKFKGKATLTADKSSSTAYMQLSTLASEDSAVYYCARVGGWLLLAYWGQGTTVT
VL: DIVMTQSPSSLAMSVGQKVTMNCKSSQSLLNSNTQKNYLAWYQQKPGHSPKLLVYLSSTRESGVPDRFIGSGSGTDFTLTISSVQAEDLADYFCQQHYTTPLTFGAGTKLELKR
notes: Mouse monoclonal from a hybridoma; also called MAb265; MAB265
B1: binds.
